Measured values as given in patent publication US20150165065A1 (AVIDBIOTICS, published 2015).
Numbering of substitutions follows the chain as printed.

B1: soluble MICA generated from pKK37 (loop 1 insert 3.2) (designed binder)
chain: HHHHHHEPHSLRYNLTVLSWDGSVQSGFLTEVHLDGQPFLRCDRQKCRAKPQGQWAEDVLGNKTWDRETRDLTGNGKDLRMTLAHIKDQKEGLHSLQEIRVCEIHEDNSTRSSQHFYYDGELFLSQNLETEEWTMPQSSRAQTLAMNVRNFLKEDAMKTKTHYHAMHADCLQELRRYLKSGVVLRRTVPPMVNVTRTSRGDHPRTQVTCRASGFYPWNITLSWRQDGVSLSHDTQQWGDVLPDGNGTYQTWVATRICQGEEQRFTCYMEHSGNHSTHPVPSGK
notes: From pKK34 (His6, Glu125); secreted by 293T cells; also called 1-3.2
B2: soluble MICA generated from pKK38 (loop 1 insert 3.3) (designed binder)
chain: HHHHHHEPHSLRYNLTVLSWDGSVQSGFLTEVHLDGQPFLRCDRQKCRAKPQGQWAEDVLGNKTWDRETRDLTGNGKDLRMTLAHIKDQKEGLHSLQEIRVCEIHEDNSTRSSQHFYYDGELFLSQNLETEEWTMPQSSRAQTLAMNVRNFLKEDAMKTKTHYHAMHADCLQELRRYLKSGVVLRRTVPPMVNVTRVPRGDSDLTVTCRASGFYPWNITLSWRQDGVSLSHDTQQWGDVLPDGNGTYQTWVATRICQGEEQRFTCYMEHSGNHSTHPVPSGK
notes: From pKK34 (His6, Glu125); secreted by 293T cells; also called 1-3.3
B3: soluble MICA generated from pKK39 (loop 1 insert 3.4) (designed binder)
chain: B2 chain with V197S, P198A, L204H, T205R
notes: From pKK34 (His6, Glu125); secreted by 293T cells; also called 1-3.4
B4: soluble MICA generated from pKK40 (loop 1 insert 5.1) (designed binder)
chain: B2 chain with R196V, V197T, P198R, R199G, G200D, D201T, S202F, D203T, L204Q, T205S
notes: From pKK34 (His6, Glu125); secreted by 293T cells; also called 1-5.1
B5: soluble MICA generated from pKK42 (loop 1 insert 5.3) (designed binder)
chain: B2 chain with R196H, V197L, P198A, S202D, D203L, L204T, T205Y
notes: From pKK34 (His6, Glu125); secreted by 293T cells; also called 1-5.3
B6: soluble MICA generated from pKK41 (loop 1 insert 5.2) (designed binder)
chain: HHHHHHEPHSLRYNLTVLSWDGSVQSGFLTEVHLDGQPFLRCDRQKCRAKPQGQWAEDVLGNKTWDRETRDLTGNGKDLRMTLAHIKDQKEGLHSLQEIRVCEIHEDNSTRSSQHFYYDGELFLSQNLETEEWTMPQSSRAQTLAMNVRNFLKEDAMKTKTHYHAMHADCLQELRRYLKSGVVLRRTVPPMVNVTRGDTFTQSVTCRASGFYPWNITLSWRQDGVSLSHDTQQWGDVLPDGNGTYQTWVATRICQGEEQRFTCYMEHSGNHSTHPVPSGK
notes: From pKK34 (His6, Glu125); secreted by 293T cells; also called 1-5.2
B7: soluble MICA generated from pKK44 (loop 1 insert extended 3.2sp) (designed binder)
chain: HHHHHHEPHSLRYNLTVLSWDGSVQSGFLTEVHLDGQPFLRCDRQKCRAKPQGQWAEDVLGNKTWDRETRDLTGNGKDLRMTLAHIKDQKEGLHSLQEIRVCEIHEDNSTRSSQHFYYDGELFLSQNLETEEWTMPQSSRAQTLAMNVRNFLKEDAMKTKTHYHAMHADCLQELRRYLKSGVVLRRTVPPMVNVTSGGSGGGSTSRGDHPRTQSGGSGGGVTCRASGFYPWNITLSWRQDGVSLSHDTQQWGDVLPDGNGTYQTWVATRICQGEEQRFTCYMEHSGNHSTHPVPSGK
notes: From pKK34 (His6, Glu125); secreted by 293T cells; also called 1-3.2sp
B8: soluble MICA generated from pKK45 (loop 1 insert extended 3.3sp) (designed binder)
chain: B7 chain with T204R, S205V, R206P, G207R, D208G, H209D, P210S, R211D, T212L, Q213T
notes: From pKK34 (His6, Glu125); secreted by 293T cells; also called 1-3.3sp
B9: soluble MICA generated from pKK47 (loop 1 insert extended 5.3sp) (designed binder)
chain: B7 chain with T204H, S205L, R206A, G207R, D208G, H209D, P210D, R211L, Q213Y
notes: From pKK34 (His6, Glu125); secreted by 293T cells; also called 1-5.3sp
B10: soluble MICA generated from pKK48 (loop 3 insert extended 3.2sp) (designed binder)
chain: EPHSLRYNLTVLSWDGSVQSGFLTEVHLDGQPFLRCDRQKCRAKPQGQWAEDVLGNKTWDRETRDLTGNGKDLRMTLAHIKDQKEGLHSLQEIRVCEIHEDNSTRSSQHFYYDGELFLSQNLETKEWTMPQSSRAQTLAMNVRNFLKEDAMKTKTHYHAMHADCLQELRRYLKSGVVLRRTVPPMVNVTRSEASEGNITVTCRASGFYPWNITLSWRQDGVSLSHDTQQWGDVLPDGNGTYQTWVATRISGGSGGGSTSRGDHPRTQSGGSGGGCYMEHSGNHSTHPVPSGK
notes: From pSW276 (no N-terminal His tag, Lys125); secreted by 293T cells; also called 3-3.2sp
B11: soluble MICA generated from pKK49 (loop 3 insert extended 3.3sp) (designed binder)
chain: B10 chain with T258R, S259V, R260P, G261R, D262G, H263D, P264S, R265D, T266L, Q267T
notes: From pSW276 (no N-terminal His tag, Lys125); secreted by 293T cells; also called 3-3.3sp
B12: soluble MICA generated from pKK50 (loop 3 insert extended 5.1sp) (designed binder)
chain: B10 chain with T258V, S259T, H263T, P264F, R265T, T266Q, Q267S
notes: From pSW276 (no N-terminal His tag, Lys125); secreted by 293T cells; also called 3-5.1sp

Each binder was assayed against T1, integrin αVβ3 (UniProt P06756 31-992; P05106 27-718) (assay: ELISA, coated integrin, anti-MICA-HRP).
T1 construct: Coated on the ELISA plate
Protocol: (§1) The ability of the soluble MICA molecules in each of the concentrated supernatants to bind target molecules was assayed by an ELISA using the intended target proteins, integrin αVβ3 or αVβ5, as capture agents on the ELISA plate. After the respective integrins were adhered to the bottoms of the wells of the ELISA plate, the wells were washed and blocked, as well known in the field. Each sample (100 μl) of soluble MICA produced and secreted by 293T cells was added to wells containing αVβ3 or αVβ5, incubated and washed. The soluble MICA molecules captured by the integrins were detected by HRP-conjugated antibody to human MICA developed with Ultra TMB-ELISA substrate and the optical densities read. The quantity of soluble MICA in each sample was determined by the MICA-specific ELISA. […] The ELISA signal from a non-binding, negative control MICA (generated by pSW273) was subtracted from each integrin binding signal.

T1 sequence (P06756 31-992, chain 1 of 2): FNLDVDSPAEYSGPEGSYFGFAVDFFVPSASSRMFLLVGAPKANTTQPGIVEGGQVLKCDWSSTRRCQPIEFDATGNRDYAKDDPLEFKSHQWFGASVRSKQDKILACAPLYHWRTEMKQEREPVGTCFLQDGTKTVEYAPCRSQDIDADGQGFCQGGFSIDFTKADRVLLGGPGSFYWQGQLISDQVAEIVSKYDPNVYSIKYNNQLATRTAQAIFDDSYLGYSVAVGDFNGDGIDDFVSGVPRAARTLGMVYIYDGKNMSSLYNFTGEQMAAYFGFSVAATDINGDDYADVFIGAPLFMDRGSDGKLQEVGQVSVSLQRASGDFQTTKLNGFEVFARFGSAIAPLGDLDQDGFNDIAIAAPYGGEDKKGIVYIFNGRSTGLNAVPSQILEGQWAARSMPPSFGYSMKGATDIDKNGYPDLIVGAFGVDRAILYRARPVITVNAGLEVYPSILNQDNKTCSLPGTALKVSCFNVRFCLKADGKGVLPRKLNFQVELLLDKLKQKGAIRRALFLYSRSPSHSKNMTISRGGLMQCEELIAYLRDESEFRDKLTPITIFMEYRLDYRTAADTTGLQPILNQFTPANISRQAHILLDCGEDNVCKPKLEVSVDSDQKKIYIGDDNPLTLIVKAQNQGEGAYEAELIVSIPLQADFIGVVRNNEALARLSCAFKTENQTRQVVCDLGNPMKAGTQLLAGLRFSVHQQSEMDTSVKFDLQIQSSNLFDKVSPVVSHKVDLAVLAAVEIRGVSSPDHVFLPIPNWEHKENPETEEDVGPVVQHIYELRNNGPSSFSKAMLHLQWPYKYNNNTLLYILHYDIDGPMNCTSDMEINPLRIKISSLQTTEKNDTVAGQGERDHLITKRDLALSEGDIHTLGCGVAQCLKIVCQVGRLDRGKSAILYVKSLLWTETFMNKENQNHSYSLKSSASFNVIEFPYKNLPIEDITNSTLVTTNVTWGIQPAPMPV
T1 sequence (P05106 27-718, chain 2 of 2): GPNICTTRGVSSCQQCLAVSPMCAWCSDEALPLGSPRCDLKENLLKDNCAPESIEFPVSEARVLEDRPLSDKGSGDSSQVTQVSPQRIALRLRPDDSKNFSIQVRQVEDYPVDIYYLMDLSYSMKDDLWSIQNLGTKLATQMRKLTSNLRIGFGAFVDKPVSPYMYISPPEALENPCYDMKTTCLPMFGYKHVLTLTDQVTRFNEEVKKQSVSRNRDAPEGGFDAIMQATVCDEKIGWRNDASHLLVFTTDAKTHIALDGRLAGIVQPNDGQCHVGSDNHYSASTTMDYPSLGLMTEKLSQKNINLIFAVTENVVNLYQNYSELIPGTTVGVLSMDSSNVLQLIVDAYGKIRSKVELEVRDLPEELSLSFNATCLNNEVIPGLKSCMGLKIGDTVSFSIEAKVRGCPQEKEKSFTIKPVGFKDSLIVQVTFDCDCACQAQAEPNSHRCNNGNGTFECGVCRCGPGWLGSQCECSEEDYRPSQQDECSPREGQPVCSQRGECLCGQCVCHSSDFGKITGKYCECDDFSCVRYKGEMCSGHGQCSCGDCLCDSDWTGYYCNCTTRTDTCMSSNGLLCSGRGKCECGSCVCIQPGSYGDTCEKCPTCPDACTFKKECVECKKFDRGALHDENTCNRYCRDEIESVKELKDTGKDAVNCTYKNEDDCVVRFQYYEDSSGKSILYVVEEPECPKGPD

First: B1
Second: B2
The αvβ3 signal of the first is higher: 0.777 OD for the first, 0.291 OD for the second.

Going from B3 to B4, the αvβ3 signal rises from 0.482 OD to 0.485 OD.

First: B5
Second: B6
The αvβ3 signal of the first is higher: 0.526 OD for the first, 0.516 OD for the second.

Compared with B7, B8 is lower in αvβ3 signal: 0.41 OD for the first, 0.393 OD for the second.

Going from B9 to B10, the αvβ3 signal rises from 0.294 OD to 0.478 OD.

First: B11
Second: B12
The αvβ3 signal of the first is lower: 0.508 OD for the first, 0.546 OD for the second.

Compared with B1, B2 is higher in αvβ3 signal/ng: 22.4 signal/ng MICA for the first, 30.7 signal/ng MICA for the second.

Compared with B3, B4 is higher in αvβ3 signal/ng: 18 signal/ng MICA for the first, 19.5 signal/ng MICA for the second.

Going from B5 to B6, the αvβ3 signal/ng falls from 21.2 signal/ng MICA to 17.7 signal/ng MICA.

Going from B7 to B8, the αvβ3 signal/ng rises from 8.92 signal/ng MICA to 9.51 signal/ng MICA.

Compared with B9, B10 is lower in αvβ3 signal/ng: 9.99 signal/ng MICA for the first, 6.08 signal/ng MICA for the second.

First: B11
Second: B12
The αvβ3 signal/ng of the first is higher: 5.86 signal/ng MICA for the first, 5.85 signal/ng MICA for the second.

The binders below were run against T2, integrin αVβ5 (UniProt P06756 31-992; P18084 24-719) (assay: ELISA, coated integrin, anti-MICA-HRP).
T2 construct: Coated on the ELISA plate
Protocol: as §1

T2 sequence (P06756 31-992, chain 1 of 2): as the sequence (P06756 31-992, chain 1 of 2) above
T2 sequence (P18084 24-719, chain 2 of 2): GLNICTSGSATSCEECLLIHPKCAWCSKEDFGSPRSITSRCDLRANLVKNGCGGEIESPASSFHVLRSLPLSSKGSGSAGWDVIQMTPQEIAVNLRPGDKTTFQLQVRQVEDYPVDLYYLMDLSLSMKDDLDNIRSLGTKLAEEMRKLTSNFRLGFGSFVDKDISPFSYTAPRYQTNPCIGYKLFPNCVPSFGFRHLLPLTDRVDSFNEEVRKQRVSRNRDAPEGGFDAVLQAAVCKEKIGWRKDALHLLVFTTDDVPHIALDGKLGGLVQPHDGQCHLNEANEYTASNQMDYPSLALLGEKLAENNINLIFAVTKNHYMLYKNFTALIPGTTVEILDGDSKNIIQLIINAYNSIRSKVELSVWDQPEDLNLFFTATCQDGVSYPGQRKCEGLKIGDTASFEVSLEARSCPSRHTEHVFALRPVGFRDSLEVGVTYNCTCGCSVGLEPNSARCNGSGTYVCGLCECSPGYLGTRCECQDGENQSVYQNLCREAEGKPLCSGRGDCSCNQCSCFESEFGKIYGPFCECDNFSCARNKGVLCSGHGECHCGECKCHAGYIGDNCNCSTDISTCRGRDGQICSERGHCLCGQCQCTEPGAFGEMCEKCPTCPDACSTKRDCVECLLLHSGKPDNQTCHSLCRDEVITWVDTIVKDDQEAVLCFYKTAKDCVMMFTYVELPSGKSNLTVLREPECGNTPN

Compared with B1, B2 is lower in αvβ5 signal: 0.779 OD for the first, 0.291 OD for the second.

Going from B3 to B4, the αvβ5 signal rises from 0.528 OD to 0.675 OD.

First: B5
Second: B6
The αvβ5 signal of the first is lower: 0.565 OD for the first, 0.65 OD for the second.

Compared with B7, B8 is lower in αvβ5 signal: 0.46 OD for the first, 0.41 OD for the second.

First: B9
Second: B10
The αvβ5 signal of the first is lower: 0.276 OD for the first, 0.604 OD for the second.

Going from B11 to B12, the αvβ5 signal rises from 0.478 OD to 0.721 OD.

Compared with B1, B2 is higher in αvβ5 signal/ng: 22.4 signal/ng MICA for the first, 30.7 signal/ng MICA for the second.

First: B3
Second: B4
The αvβ5 signal/ng of the first is lower: 19.7 signal/ng MICA for the first, 27.1 signal/ng MICA for the second.

Going from B5 to B6, the αvβ5 signal/ng falls from 22.8 signal/ng MICA to 22.4 signal/ng MICA.

Compared with B7, B8 is lower in αvβ5 signal/ng: 10 signal/ng MICA for the first, 9.92 signal/ng MICA for the second.

Going from B9 to B10, the αvβ5 signal/ng falls from 9.38 signal/ng MICA to 7.68 signal/ng MICA.

First: B11
Second: B12
The αvβ5 signal/ng of the first is lower: 5.51 signal/ng MICA for the first, 7.73 signal/ng MICA for the second.
